Test system: EGR1, ARC, and MAPK1 mRNA transcripts
Experiment: Fluorescence in situ hybridization of mRNA transcripts in APP/PS1 hippocampus CA1
Assay type: in vivo, transgenic APP/PS1 mice
Conditions: CA1 region of hippocampus; all three groups compared
Experimental: Coronal brain sections (10 μm thickness) were washed three times in PBS before mounting on gelatin-coated glass slides (Superfrost Plus, Thermo Fisher Scientific). Tissues were allowed to dry at RT and were then stored at −20° C. until use. Fluorescence in situ hybridization (FISH) was performed using Multiplex Reagent Kit V2 from RNAscope® Technology 2.0 (Advanced Cell Diagnostics (ACD), Hayward, Calif.). See Vasquez, J. J., Hussien, R., Aguilar-Rodriguez, B., Junger, H., Dobi, D., Henrich, T. J., Thanh, C., Gibson, E., Hogan, L. E., McCune, J., Hunt, P. W., Stoddart, C. A.,Laszik, Z. G., Elucidating the Burden of HIV in Tissues Using Multiplexed Immunofluorescence and In Situ Hybridization: Methods for the Single-Cell Phenotypic Characterization of Cells Harboring HIV In Situ. J Histochem Cytochem 2018; 66:427-46; Gershon, T. R., Crowther, A. J., Liu, H., Miller, C. R.,Deshmukh, M., Cerebellar granule neuron progenitors are the source of Hk2 in the postnatal cerebellum. Cancer Metab 2013; 1:15; and Smith, P. A., Schmid, C., Zurbruegg, S., Jivkov, M., Doelemeyer, A., Theil, D., Dubost, V., Beckmann, N., Fingolimod inhibits brain atrophy and promotes brain-derived neurotrophic factor in an animal model of multiple sclerosis. J Neuroimmunol 2018; 318:103-13. Mounted tissue sections were deparaffinized using xylene and serially dehydrated in 50%, 70%, 95%, and 100% ethanol for 5 min each. […]

B1: BDNF: recombinant brain-derived neurotrophic factor (13 kDa monomer), Peprotech (protein, UniProt P23560 19-247, looked up)
Neurotrophic factor BDNF …: APMKEANIRGQGGLAYPGVRTHGTLESVNGPKAGSRGLTSLADTFEHVIEELLDEDQKVRPNEENNKDADLYTSRVMLSSQVPLEPPLLFLLEEYKNYLDAANMSMRVRRHSDPARRGELSVCDSISEWVTAADKKTAVDMSGGTVTVLEKVPVSKGQLKQYFYETKCNPMGYTKEGCRGIDKRHWNSQCRTTQSYVRALTMDSKKRIGWRFIRIDTSCVCTLTIKRGR
- MAPK1 expression: no significant differences

From patent US20220227815A1, “COMPOSITIONS AND METHODS USEFUL IN TREATING BRAIN DISEASES” (University of Kansas, priority 2019, published 2022)
